Data on one substance can be found in PMC5723419.

For this assay, the target named is Aminopeptidase P from Pseudomonas aeruginosa (Pa-PepP) (Pseudomonas aeruginosa PA14). Briefly: crystal structure.

As usually defined, the stoichiometry N is a count of units in the complex or per binding partner. On to “Aminopeptidase P from Pseudomonas aeruginosa (Pa-PepP) (enzyme)”, for which the stoichiometry N is 4.
